Assay results taken from patent publication US20220025010A1 (ANTAG THERAPEUTICS, published 2022).
Where no end group is shown, it is not given here. The star is where a group is joined. C16 diacid = O=C(O)CCCCCCCCCCCCCCC(=O)*

Molecular target: T1, human GIP receptor (human, UniProt P48546 22-466)
T1 sequence (looked up): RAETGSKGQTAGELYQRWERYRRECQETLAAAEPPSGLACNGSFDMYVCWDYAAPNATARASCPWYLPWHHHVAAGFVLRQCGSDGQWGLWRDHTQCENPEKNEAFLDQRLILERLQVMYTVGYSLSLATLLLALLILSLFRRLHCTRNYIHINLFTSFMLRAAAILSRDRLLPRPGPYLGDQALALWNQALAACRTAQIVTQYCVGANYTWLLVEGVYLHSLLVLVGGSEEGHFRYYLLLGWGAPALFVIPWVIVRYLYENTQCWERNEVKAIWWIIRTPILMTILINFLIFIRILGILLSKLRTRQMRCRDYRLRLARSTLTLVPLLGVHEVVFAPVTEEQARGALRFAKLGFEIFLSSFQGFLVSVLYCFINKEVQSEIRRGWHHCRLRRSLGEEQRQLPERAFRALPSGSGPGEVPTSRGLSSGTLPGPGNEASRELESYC
Assay: cell-based or functional assay

Binder	CisBio cAMP agonism % Efficacy [%]	CisBio cAMP antagonism % inhib [%]	CisBio cAMP antagonism IC50 [nM]	CisBio cAMP antagonism pIC50	DiscoveRx cAMP agonism Emax	DiscoveRx cAMP antagonism IC50 [nM]	DiscoveRx cAMP antagonism log IC50 [log M]
PGTFISDYSIAMDRIKQQDFVNWLLAQR (HELM PEPTIDE1{P.G.T.F.I.S.D.Y.S.I.A.M.D.R.I.K.Q.Q.D.F.V.N.W.L.L.A.Q.R}|PEPTIDE2{[O=C(O)CCCCCCCCCCCCCCC(=O)[*:2]].[gGlu]}$PEPTIDE1,PEPTIDE2,16:R3-2:R2$$$V2.0; N-terminus assumed; SMILES CC[C@H](C)[C@H](NC(=O)[C@H](CO)NC(=O)[C@H](Cc1ccc(O)cc1)NC(=O)[C@H](CC(=O)O)NC(=O)[C@H](CO)NC(=O)[C@@H](NC(=O)[C@H](Cc1ccccc1)NC(=O)[C@@H](NC(=O)CNC(=O)[C@@H]1CCCN1)[C@@H](C)O)[C@@H](C)CC)C(=O)N[C@@H](C)C(=O)N[C@@H](CCSC)C(=O)N[C@@H](CC(=O)O)C(=O)N[C@@H](CCCNC(=N)N)C(=O)N[C@H](C(=O)N[C@@H](CCCCNC(=O)CC[C@H](NC(=O)CCCCCCCCCCCCCCC(=O)O)C(=O)O)C(=O)N[C@@H](CCC(N)=O)C(=O)N[C@@H](CCC(N)=O)C(=O)N[C@@H](CC(=O)O)C(=O)N[C@@H](Cc1ccccc1)C(=O)N[C@H](C(=O)N[C@@H](CC(N)=O)C(=O)N[C@@H](Cc1c[nH]c2ccccc12)C(=O)N[C@@H](CC(C)C)C(=O)N[C@@H](CC(C)C)C(=O)N[C@@H](C)C(=O)N[C@@H](CCC(N)=O)C(=O)N[C@@H](CCCNC(=N)N)C(=O)O)C(C)C)[C@@H](C)CC) [AT267]	4	52	736	6.1	16	123	-6.9
SGTFISDYSIAMDRIK(C16 diacid)QQDFVNWLLAQR-OH (N-terminus assumed; SMILES CC[C@H](C)[C@H](NC(=O)[C@H](CO)NC(=O)[C@H](Cc1ccc(O)cc1)NC(=O)[C@H](CC(=O)O)NC(=O)[C@H](CO)NC(=O)[C@@H](NC(=O)[C@H](Cc1ccccc1)NC(=O)[C@@H](NC(=O)CNC(=O)[C@@H](N)CO)[C@@H](C)O)[C@@H](C)CC)C(=O)N[C@@H](C)C(=O)N[C@@H](CCSC)C(=O)N[C@@H](CC(=O)O)C(=O)N[C@@H](CCCNC(=N)N)C(=O)N[C@H](C(=O)N[C@@H](CCCCNC(=O)CCCCCCCCCCCCCCC(=O)O)C(=O)N[C@@H](CCC(N)=O)C(=O)N[C@@H](CCC(N)=O)C(=O)N[C@@H](CC(=O)O)C(=O)N[C@@H](Cc1ccccc1)C(=O)N[C@H](C(=O)N[C@@H](CC(N)=O)C(=O)N[C@@H](Cc1c[nH]c2ccccc12)C(=O)N[C@@H](CC(C)C)C(=O)N[C@@H](CC(C)C)C(=O)N[C@@H](C)C(=O)N[C@@H](CCC(N)=O)C(=O)N[C@@H](CCCNC(=N)N)C(=O)O)C(C)C)[C@@H](C)CC) [AT259]	9	72	58.4	7.2	20	19	-7.7
